Target: T1, Flag-tagged Pds5a (human, UniProt Q29RF7 1-1337)
T1 construct: Pds5a, human; insert by PCR on human cDNA; also called Flag-Pds5; source: Hek293T, transfected (alone or with eGFP-Nek2aΔMR and eGFP-Δ86-cyclin A2), taxol-arrested
T1 sequence (looked up): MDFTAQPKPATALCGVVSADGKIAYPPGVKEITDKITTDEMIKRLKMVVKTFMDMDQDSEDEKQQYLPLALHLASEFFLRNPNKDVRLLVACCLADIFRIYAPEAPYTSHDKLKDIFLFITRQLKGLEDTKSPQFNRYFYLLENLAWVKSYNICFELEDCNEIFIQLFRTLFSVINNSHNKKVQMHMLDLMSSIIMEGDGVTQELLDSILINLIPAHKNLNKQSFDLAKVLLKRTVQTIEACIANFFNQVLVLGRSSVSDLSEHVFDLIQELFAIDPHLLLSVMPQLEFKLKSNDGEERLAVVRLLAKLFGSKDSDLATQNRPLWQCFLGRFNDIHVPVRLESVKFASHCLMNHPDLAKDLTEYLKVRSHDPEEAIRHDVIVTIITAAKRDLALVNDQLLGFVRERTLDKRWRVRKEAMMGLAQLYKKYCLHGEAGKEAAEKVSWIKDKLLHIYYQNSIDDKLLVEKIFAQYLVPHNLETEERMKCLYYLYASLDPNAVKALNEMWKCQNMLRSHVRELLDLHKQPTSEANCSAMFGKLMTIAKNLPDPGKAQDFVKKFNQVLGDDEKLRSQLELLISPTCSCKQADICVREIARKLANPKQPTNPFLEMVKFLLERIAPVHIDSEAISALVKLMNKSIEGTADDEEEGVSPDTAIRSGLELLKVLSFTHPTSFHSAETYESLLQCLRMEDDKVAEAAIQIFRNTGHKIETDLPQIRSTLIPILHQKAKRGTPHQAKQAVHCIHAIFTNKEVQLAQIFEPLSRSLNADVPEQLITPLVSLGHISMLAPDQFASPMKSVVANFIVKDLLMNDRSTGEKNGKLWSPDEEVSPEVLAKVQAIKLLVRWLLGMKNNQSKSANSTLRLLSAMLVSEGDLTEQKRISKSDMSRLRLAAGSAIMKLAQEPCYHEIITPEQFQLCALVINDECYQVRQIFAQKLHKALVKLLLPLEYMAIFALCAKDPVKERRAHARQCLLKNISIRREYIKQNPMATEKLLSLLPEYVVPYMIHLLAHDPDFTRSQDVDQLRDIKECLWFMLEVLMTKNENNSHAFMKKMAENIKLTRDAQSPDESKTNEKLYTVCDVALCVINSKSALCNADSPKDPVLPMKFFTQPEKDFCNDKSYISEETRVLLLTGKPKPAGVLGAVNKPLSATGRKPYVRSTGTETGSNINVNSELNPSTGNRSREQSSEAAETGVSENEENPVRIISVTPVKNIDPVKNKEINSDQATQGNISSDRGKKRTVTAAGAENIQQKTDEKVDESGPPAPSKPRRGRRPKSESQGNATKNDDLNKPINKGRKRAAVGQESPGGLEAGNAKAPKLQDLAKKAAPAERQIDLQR
Experiment: pull-down; Flag-Pds5a or -b affinity-purified on anti-Flag beads from chromatin-free lysates of taxol-arrested Hek293T cells (expressed alone or with Nek2aΔMR and/or Δ86-cyclin A2); beads incubated with a mixture of recombinant Wapl (2 µl) and sororin (0.3 µg) in 15 µl cleavage buffer with kinase inhibitors, 20 min at 37 °C; bound and unbound fractions by immunoblotting
Conditions: both partners purified

B1: recombinant human Wapl (natural protein, UniProt Q7Z5K2 1-1190, looked up)
chain: MTSRFGKTYSRKGGNGSSKFDEVFSNKRTTLSTKWGETTFMAKLGQKRPNFKPDIQEIPKKPKVEEESTGDPFGFDSDDESLPVSSKNLAQVKCSSYSESSEAAQLEEVTSVLEANSKISHVVVEDTVVSDKCFPLEDTLLGKEKSTNRIVEDDASISSCNKLITSDKVENFHEEHEKNSHHIHKNADDSTKKPNAETTVASEIKETNDTWNSQFGKRPESPSEISPIKGSVRTGLFEWDNDFEDIRSEDCILSLDSDPLLEMKDDDFKNRLENLNEAIEEDIVQSVLRPTNCRTYCRANKTKSSQGASNFDKLMDGTSQALAKANSESSKDGLNQAKKGGVSCGTSFRGTVGRTRDYTVLHPSCLSVCNVTIQDTMERSMDEFTASTPADLGEAGRLRKKADIATSKTTTRFRPSNTKSKKDVKLEFFGFEDHETGGDEGGSGSSNYKIKYFGFDDLSESEDDEDDDCQVERKTSKKRTKTAPSPSLQPPPESNDNSQDSQSGTNNAENLDFTEDLPGVPESVKKPINKQGDKSKENTRKIFSGPKRSPTKAVYNARHWNHPDSEELPGPPVVKPQSVTVRLSSKEPNQKDDGVFKAPAPPSKVIKTVTIPTQPYQDIVTALKCRREDKELYTVVQHVKHFNDVVEFGENQEFTDDIEYLLSGLKSTQPLNTRCLSVISLATKCAMPSFRMHLRAHGMVAMVFKTLDDSQHHQNLSLCTAALMYILSRDRLNMDLDRASLDLMIRLLELEQDASSAKLLNEKDMNKIKEKIRRLCETVHNKHLDLENITTGHLAMETLLSLTSKRAGDWFKEELRLLGGLDHIVDKVKECVDHLSRDEDEEKLVASLWGAERCLRVLESVTVHNPENQSYLIAYKDSQLIVSSAKALQHCEELIQQYNRAEDSICLADSKPLPHQNVTNHVGKAVEDCMRAIIGVLLNLTNDNEWGSTKTGEQDGLIGTALNCVLQVPKYLPQEQRFDIRVLGLGLLINLVEYSARNRHCLVNMETSCSFDSSICSGEGDDSLRIGGQVHAVQALVQLFLERERAAQLAESKTDELIKDAPTTQHDKSGEWQETSGEIQWVSTEKTDGTEEKHKKEEEDEELDLNKALQHAGKHMEDCIVASYTALLLGCLCQESPINVTTVREYLPEGDFSIMTEMLKKFLSFMNLTCAVGTTGQKSISRVIEYLEHC
notes: Wapl, human; insert by PCR on human cDNA; Isolated from mitotically arrested cells; also called GFP-SUMOstar-Wapl; source: Hek293T, transiently transfected, taxol-arrested; not shown: GFP, N-terminal, cleaved; SUMOstar, N-terminal, cleaved
B1: binds.
